Experimental data taken from patent US20250002926A1.

Target: dCas9-24XGP41 (Streptococcus pyogenes serotype M1) (UniProt Q99ZW2)
Experiment: cell-based or functional assay

**Q.** For “NbGP41-sfGFP-VP64-GB1 (from UniProt P06654 228-282) (VHH)”, which expression of CLV3 in homozygous Setaria MoonTag lines against wild-type ME34 (RT-qPCR) is on record?
**A.** Its expression of CLV3 in homozygous Setaria MoonTag lines against wild-type ME34 (RT-qPCR) is 100 fold.
